The experiment has as its system MD55A3 melanoma cells. The experiment in a line: V5-ATF4(1-63)-His frameshift reporter, His-tag pulldown and V5-tag immunoblotting. The following applies: IFNγ treatment vs control, MD55A3 cells. The format is cell-based, human. From the text: FIG. 3: W-Bumps are associated with disordered out-of-frame peptides, and shortage in tryptophan leads to frameshifting events. • (a) Bar-plots depicting total occurrences of alpha-helices, beta-sheets and turns for tryptophan-containing peptide sequences corresponding to W-Bumps (left) and all remaining peptide sequences (middle), and the difference in percentages (right). […] Tryptophan shortage, on the other hand, can lead to stalling on the tryptophan codon (bottom left panel), or could in theory induce frameshifting events, leading to aberrant peptide production (lower right panel). Since secondary structure of growing polypeptide chains is attained in the lower tunnel of the ribosome, the loss of an a-helical secondary structure in this tunnel could hamper ribosomal progression. (c) Line-plots depicting the probability of disorderedness of peptide sequences. The position of the tryptophan is indicated by the dashed line. […] The green line represents the average probability of disorderedness of all peptides (‘All tryptophan codons’, n=36508). A group of outlier candidates that show relatively ordered out-of-frame peptide sequences were selected for comparisons (‘Selected tryptophan codons’, n=94, red). (d) Line-plots depicting mean frequency of RPFs at single nucleotide resolution across all tryptophans (green) and the selected outlier set (red) from panel 3c. […]
On the technique in general: In western blotting, separated proteins are transferred to a membrane and probed.

B1: IFNγ: interferon gamma (PeproTech), used at 250 U/mL (protein, UniProt P01579 24-161, looked up)
Interferon gamma: QDPYVKEAENLKKYFNAGHSDVADNGTLFLGILKNWKEESDRKIMQSQIVSFYFKLFKNFKDDQSIQKSVETIKEDMNVKFFNSNKKKRDDFEKLTNYSVTDLNVQRKAIHELIQVMAELSPAAKTGKRKRSQMLFRG
For B1, the “His-tag pulldown of +1 and +2 reporter proteins (frameshifting events)” value is “partially pulled down”.

(Values after patent publication US20230390371A1, “ANTI-TUMOR IMMUNITY INDUCES THE PRESENTATION OF ABERRANT PEPTIDES” (STICHTING HET NEDERLANDS KANKER INSTITUUT-ANTONI VAN …, priority 2020, published 2023).)
